Publication PMC7045587
“Also recorded” adds a separate entry of the source.

Legend:
Conditions in all cases: control: wild type
[1] = activity at 30-90 °C
[2] = activity across pH 3-9
[3] = DNS reducing-sugar assay, 60 °C
[4] = Michaelis-Menten kinetics, 60 °C, pH 4
[5] = thermal inactivation half-life at 80 °C
[6] = thermal inactivation half-life at 90 °C
[7] = residual activity after 200 min at 30-90 °C
[8] = protein yield after purification from P. pastoris

Protein | other: optimal temperature of activity ([1]; glycan gained) | other: optimal pH of activity ([2]; glycan gained) | enzymatic_activity, other: specific activity ([3]; glycan gained) | enzymatic_activity, kcat_Km ([4]; glycan gained) | stability_or_folding, half_life ([5]; glycan gained) | stability_or_folding, half_life ([6]; glycan gained) | stability_or_folding ([7]; glycan gained) | expression_or_secretion ([8]; glycan gained) | other: optimal temperature of activity ([1]; glycan lost) | other: optimal pH of activity ([2]; glycan lost) | enzymatic_activity, other: specific activity ([3]; glycan lost) | enzymatic_activity, kcat_Km ([4]; glycan lost) | stability_or_folding, half_life ([5]; glycan lost) | stability_or_folding, half_life ([6]; glycan lost) | stability_or_folding ([7]; glycan lost) | expression_or_secretion ([8]; glycan lost)
CTendo45: L47T (protein) parent chain: MHLSQLALPLLLAAGAHAQGAQGTGRTTRYWDCCKPSCAWPGKSNALQPVQTCNAQDQPLNDGGNTRSGCDSGGSAFMCSNQSPWALNETLSYGWAAVRIAGQSEFNWCCACYELTFTSGPVAGKKMIVQATNTGGDLGSNHFDIAIPGGGVGIFNACTQQYGAPPNGWGERYGGIRSRSECDSFPEALKAGCYWRFDWFLGADNPDVSFKQVACPAAITAKSKCVRQRDVIDQTPTGPEIVPTWTP | no change | no change | increases, 1.36 ± 0.06 vs 1.21 ± 0.08; also recorded: increases, 2.17 ± 0.08 vs 2.07 ± 0.14 | increases, 74.65 ± 1.36 vs 62.06 ± 1.25; also recorded: increases, 192.43 ± 1.85 vs 138.46 ± 2.07 | increases, 230 vs 150; also recorded: increases, 210 vs 130 | increases, 55 vs 35; also recorded: increases, 45 vs 28 | increases | no change |  |  |  |  |  |  |  | 
CTendo45: W169S (protein) parent chain: MHLSQLALPLLLAAGAHAQGAQGTGRTTRYWDCCKPSCAWPGKSNALQPVQTCNAQDQPLNDGGNTRSGCDSGGSAFMCSNQSPWALNETLSYGWAAVRIAGQSEFNWCCACYELTFTSGPVAGKKMIVQATNTGGDLGSNHFDIAIPGGGVGIFNACTQQYGAPPNGWGERYGGIRSRSECDSFPEALKAGCYWRFDWFLGADNPDVSFKQVACPAAITAKSKCVRQRDVIDQTPTGPEIVPTWTP | no change | no change |  |  |  |  |  | no change |  |  |  |  |  |  |  | 
CTendo45: G63T (protein) parent chain: MHLSQLALPLLLAAGAHAQGAQGTGRTTRYWDCCKPSCAWPGKSNALQPVQTCNAQDQPLNDGGNTRSGCDSGGSAFMCSNQSPWALNETLSYGWAAVRIAGQSEFNWCCACYELTFTSGPVAGKKMIVQATNTGGDLGSNHFDIAIPGGGVGIFNACTQQYGAPPNGWGERYGGIRSRSECDSFPEALKAGCYWRFDWFLGADNPDVSFKQVACPAAITAKSKCVRQRDVIDQTPTGPEIVPTWTP | no change | no change | decreases, 0.91 ± 0.08 vs 1.21 ± 0.08; also recorded: decreases, 1.71 ± 0.11 vs 2.07 ± 0.14 |  | decreases, 130 vs 150; also recorded: decreases, 110 vs 130 | decreases, 25 vs 35; also recorded: decreases, 20 vs 28 | decreases | no change |  |  |  |  |  |  |  | 
CTendo45: F143S (protein) parent chain: MHLSQLALPLLLAAGAHAQGAQGTGRTTRYWDCCKPSCAWPGKSNALQPVQTCNAQDQPLNDGGNTRSGCDSGGSAFMCSNQSPWALNETLSYGWAAVRIAGQSEFNWCCACYELTFTSGPVAGKKMIVQATNTGGDLGSNHFDIAIPGGGVGIFNACTQQYGAPPNGWGERYGGIRSRSECDSFPEALKAGCYWRFDWFLGADNPDVSFKQVACPAAITAKSKCVRQRDVIDQTPTGPEIVPTWTP | no change | no change |  |  |  |  |  | no change |  |  |  |  |  |  |  | 
CTendo45: T90A (protein) parent chain: MHLSQLALPLLLAAGAHAQGAQGTGRTTRYWDCCKPSCAWPGKSNALQPVQTCNAQDQPLNDGGNTRSGCDSGGSAFMCSNQSPWALNETLSYGWAAVRIAGQSEFNWCCACYELTFTSGPVAGKKMIVQATNTGGDLGSNHFDIAIPGGGVGIFNACTQQYGAPPNGWGERYGGIRSRSECDSFPEALKAGCYWRFDWFLGADNPDVSFKQVACPAAITAKSKCVRQRDVIDQTPTGPEIVPTWTP |  |  |  |  |  |  |  |  | no change | no change | increases, 2.24 ± 0.18 vs 1.21 ± 0.08; also recorded: increases, 3.39 ± 0.21 vs 2.07 ± 0.14 | increases, 97.54 ± 2.13 vs 62.06 ± 1.25; also recorded: increases, 217.90 ± 2.83 vs 138.46 ± 2.07 | increases, 260 vs 150; also recorded: increases, 230 vs 130 | increases, 65 vs 35; also recorded: increases, 50 vs 28 | increases | no change
CTendo45: R67S (protein) parent chain: MHLSQLALPLLLAAGAHAQGAQGTGRTTRYWDCCKPSCAWPGKSNALQPVQTCNAQDQPLNDGGNTRSGCDSGGSAFMCSNQSPWALNETLSYGWAAVRIAGQSEFNWCCACYELTFTSGPVAGKKMIVQATNTGGDLGSNHFDIAIPGGGVGIFNACTQQYGAPPNGWGERYGGIRSRSECDSFPEALKAGCYWRFDWFLGADNPDVSFKQVACPAAITAKSKCVRQRDVIDQTPTGPEIVPTWTP | no change | no change | increases, 1.58 ± 0.12 vs 1.21 ± 0.08; also recorded: increases, 2.62 ± 0.13 vs 2.07 ± 0.14 | increases, 83.49 ± 1.25 vs 62.06 ± 1.25; also recorded: increases, 198.76 ± 2.17 vs 138.46 ± 2.07 | increases, 190 vs 150; also recorded: increases, 160 vs 130 | increases, 45 vs 35; also recorded: increases, 35 vs 28 | increases | no change |  |  |  |  |  |  |  | 
CTendo45: F143T (protein) parent chain: MHLSQLALPLLLAAGAHAQGAQGTGRTTRYWDCCKPSCAWPGKSNALQPVQTCNAQDQPLNDGGNTRSGCDSGGSAFMCSNQSPWALNETLSYGWAAVRIAGQSEFNWCCACYELTFTSGPVAGKKMIVQATNTGGDLGSNHFDIAIPGGGVGIFNACTQQYGAPPNGWGERYGGIRSRSECDSFPEALKAGCYWRFDWFLGADNPDVSFKQVACPAAITAKSKCVRQRDVIDQTPTGPEIVPTWTP | no change | no change |  |  |  |  |  | no change |  |  |  |  |  |  |  | 
CTendo45: Q56T (protein) parent chain: MHLSQLALPLLLAAGAHAQGAQGTGRTTRYWDCCKPSCAWPGKSNALQPVQTCNAQDQPLNDGGNTRSGCDSGGSAFMCSNQSPWALNETLSYGWAAVRIAGQSEFNWCCACYELTFTSGPVAGKKMIVQATNTGGDLGSNHFDIAIPGGGVGIFNACTQQYGAPPNGWGERYGGIRSRSECDSFPEALKAGCYWRFDWFLGADNPDVSFKQVACPAAITAKSKCVRQRDVIDQTPTGPEIVPTWTP | no change | no change | increases, 1.28 ± 0.10 vs 1.21 ± 0.08; also recorded: no change, 2.09 ± 0.15 vs 2.07 ± 0.14 | increases, 70.67 ± 1.74 vs 62.06 ± 1.25; also recorded: increases, 177.29 ± 1.47 vs 138.46 ± 2.07 | decreases, 110 vs 150; also recorded: decreases, 100 vs 130 | decreases, 20 vs 35; also recorded: decreases, 15 vs 28 | decreases | no change |  |  |  |  |  |  |  | 
